Laboratory results published in US20240190990A1 (BEIGENE SWITZERLAND, published 2024).

How the values were obtained:
[1] = target: T1, full-length human CEA on cells (human, UniProt P06731 35-685); assay: cell-based or functional assay
T1 sequence: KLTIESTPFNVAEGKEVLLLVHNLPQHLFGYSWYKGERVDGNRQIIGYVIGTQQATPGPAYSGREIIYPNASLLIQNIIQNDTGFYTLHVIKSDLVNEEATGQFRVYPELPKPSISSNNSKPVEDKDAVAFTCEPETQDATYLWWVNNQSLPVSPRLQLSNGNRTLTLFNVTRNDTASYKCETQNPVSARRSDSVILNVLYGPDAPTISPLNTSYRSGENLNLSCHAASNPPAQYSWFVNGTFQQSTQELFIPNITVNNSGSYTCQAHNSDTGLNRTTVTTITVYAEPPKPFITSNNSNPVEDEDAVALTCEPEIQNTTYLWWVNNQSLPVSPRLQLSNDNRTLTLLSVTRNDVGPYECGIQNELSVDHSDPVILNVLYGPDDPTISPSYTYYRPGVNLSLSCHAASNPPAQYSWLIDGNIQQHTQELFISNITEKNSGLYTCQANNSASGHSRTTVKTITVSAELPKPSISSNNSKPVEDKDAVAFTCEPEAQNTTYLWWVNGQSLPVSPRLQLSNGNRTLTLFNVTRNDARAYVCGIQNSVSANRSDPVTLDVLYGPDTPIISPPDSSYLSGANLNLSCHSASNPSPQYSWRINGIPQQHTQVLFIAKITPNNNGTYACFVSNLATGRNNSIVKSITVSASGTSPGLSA

[2] = target: T1, full-length human CEA on cells; assay: flow cytometry on LOVO cells, Alexa Fluor 647 anti-human IgG Fc
Protocol: For this experiment, anti-human IgG (Fc) antibody was immobilized on an activated CM5 biosensor chip (Cat. No. BR100839, GE Life Sciences). Anti-CEA antibodies were flowed over the chip surface and captured by anti-human Fab antibody. […] For flow cytometry, CEA-expressing cells (10⁵ cells/well) were incubated with various concentrations of purified affinity-matured antibodies, followed by binding with Alexa Fluro-647-labeled anti-hu IgG Fc antibody (Cat. No. 409320, BioLegend, USA). Cell fluorescence was quantified using a flow cytometer (Guava easyCyte™ 8HT, Merck-Millipore, USA). The equilibrium dissociation constant (KD) was calculated as the ratio koff/kₒₙ.

[3] = target: T2, CEACAM7 on transfected HEK293 cells (human, UniProt Q14002 36-242); assay: flow cytometry on transiently transfected HEK293 cells, Alexa Fluor 647 anti-human IgG Fc [panel B]
T2 sequence: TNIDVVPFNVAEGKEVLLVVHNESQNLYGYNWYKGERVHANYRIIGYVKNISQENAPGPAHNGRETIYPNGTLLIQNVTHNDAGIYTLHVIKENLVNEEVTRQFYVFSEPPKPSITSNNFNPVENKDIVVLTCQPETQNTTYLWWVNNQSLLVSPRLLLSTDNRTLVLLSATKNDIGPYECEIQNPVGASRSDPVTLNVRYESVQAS
Protocol: (§1) Cell fluorescence was quantified using a flow cytometer (Guava easyCyte™ 8HT, Merck-Millipore, USA). For antigen ELISA, CEACAM1(SEQ ID NO:64) (Cat. No. 10822-H08H, Sino Biological, China), CHIM (SEQ ID NO: 63), CEA (SEQ ID NO:55) or CEACAM6 (SEQ ID NO:57) were coated in 96-well plates at a concentration of 10 μg/ml overnight at 4° C. The HRP-linked anti-human Fc (Fc specific) IgG antibody (Cat. No. A0170, Sigma, USA) and substrate (Cat. No. 00-4201-56, eBioscience, USA) were used for development, and absorbance signal at the wavelength of 450 nm was measured using a plate reader (SpectraMax Paradigm, Molecular Devices, USA).

[4] = target: T3, CEACAM8 on transfected HEK293 cells (human, UniProt P31997 35-320); assay: as above
T3 sequence: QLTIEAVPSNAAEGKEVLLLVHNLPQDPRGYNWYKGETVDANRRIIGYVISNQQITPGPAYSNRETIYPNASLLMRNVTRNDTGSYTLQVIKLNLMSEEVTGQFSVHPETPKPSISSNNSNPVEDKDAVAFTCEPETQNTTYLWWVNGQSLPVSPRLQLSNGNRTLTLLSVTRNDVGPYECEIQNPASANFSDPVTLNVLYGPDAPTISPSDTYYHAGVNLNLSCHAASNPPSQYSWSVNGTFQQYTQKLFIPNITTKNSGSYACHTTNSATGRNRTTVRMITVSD
Protocol: as §1

[5] = target: T1, full-length human CEA on cells; assay: flow cytometry on MKN45 cells, Alexa Fluor 647 anti-human IgG Fc
Protocol: For flow cytometry, CEA-expressing MKN45 cells (10⁵ cells/well) were incubated with various concentrations of purified affinity-matured antibodies, followed by binding with Alexa Fluro-647-labeled anti-hu IgG Fc antibody (Cat. No. 409320, BioLegend, USA). Cell fluorescence was quantified using a flow cytometer (Guava easyCyte™ 8HT, Merck-Millipore, USA).

BSA = target: T4, BSA (Bos taurus, UniProt P02769); assay: antigen ELISA: antigen coated at 10 ug/ml, HRP anti-mouse IgG [panel B]
T4 construct: coated on the ELISA plate as negative control antigen; also called bovine serum albumin
Protocol: For this experiment, sCEA, CHIM, monkey CEA, CEA-v and BSA were coated in 96-well plates at a high concentration of 10 μg/ml overnight at 4° C. […] The HRP-linked anti-mouse IgG antibody (Cat. No. 7076S, Cell Signaling Technology, USA) and substrate (Cat. No. 00-4201-56, eBioscience, USA) were used for development, and absorbance signal at the wavelength of 450 nm was measured using a plate reader (SpectraMax Paradigm, Molecular Devices, USA).

T4 sequence (P02769 25-607 limits assumed): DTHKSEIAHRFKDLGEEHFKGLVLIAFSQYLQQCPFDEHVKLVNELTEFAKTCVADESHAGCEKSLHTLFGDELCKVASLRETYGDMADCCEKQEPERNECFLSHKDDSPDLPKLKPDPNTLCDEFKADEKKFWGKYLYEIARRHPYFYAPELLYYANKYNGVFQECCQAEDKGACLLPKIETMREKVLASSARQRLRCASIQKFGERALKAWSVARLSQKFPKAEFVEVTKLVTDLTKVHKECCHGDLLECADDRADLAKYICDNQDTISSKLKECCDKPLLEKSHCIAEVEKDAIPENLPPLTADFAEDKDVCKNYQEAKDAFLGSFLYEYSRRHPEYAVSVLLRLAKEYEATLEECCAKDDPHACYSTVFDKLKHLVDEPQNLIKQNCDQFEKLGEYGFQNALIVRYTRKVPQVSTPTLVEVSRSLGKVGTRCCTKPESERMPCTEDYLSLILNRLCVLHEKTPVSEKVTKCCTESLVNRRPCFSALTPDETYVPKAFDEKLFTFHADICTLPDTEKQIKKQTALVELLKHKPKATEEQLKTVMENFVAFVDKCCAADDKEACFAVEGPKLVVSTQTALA

B1: BGA113 (antibody, human IgG1, V domains shown)
VH: QVQLVQSGAEVKKPGASVKVSCKASGYIFTSYYLHWVRQAPGQGLEWIGYINPQTGYTSYAQKFQGRVTMTRDTSTSTVYMELSSLRSEDTAVYYCAREYGNYNYPLDYWGQGTLVTVSS
VL: DIQMTQSPSSLSASVGDRVTITCRASENQYGYLAWYQQKPGKVPKLLIYNYKNLVEGVPSRFSGSGSGTDFTLTISSLQPEDVATYYCQHHLGTPYTFGQGTKVEIK
notes: W33Y (VH), T51Y (VL) on BGA131F-ph-M; wild-type human IgG1 format
In the case of B1, the “ADCC (LDH release), EC50” value [1] is reported as roughly 6.7 ng/mL and the “EC50 (read off the curve)” value [2] is reported as roughly 1 nM.

B2: BGA131F (antibody, human IgG1, V domains shown)
VH: QVQLVQSGAEVKKPGASVKVSCKASGYIFTSYWLHWVRQAPGQGLEWIGYINPQTGYTSYAQKFQGRVTMTRDTSTSTVYMELSSLRSEDTAVYYCAREYGNYNYPLDYWGQGTLVTVSS
VL: DIQMTQSPSSLSASVGDRVTITCRASENIYGYLAWYQQKPGKVPKLLIYNAKNLVEGVPSRFSGSGSGTDFTLTISSLQPEDVATYYCQHHYGTPYTFGQGTKVEIK
notes: BGA131 with N54Q, N59S, S61A in VH; human IgG1 / kappa format
For B2, the “EC50 (read off the curve)” value [2] was roughly 6 nM.

B3: BGA131F-ph-M (antibody, V domains shown)
VH: QVQLVQSGAEVKKPGASVKVSCKASGYIFTSYWLHWVRQAPGQGLEWIGYINPQTGYTSYAQKFQGRVTMTRDTSTSTVYMELSSLRSEDTAVYYCAREYGNYNYPLDYWGQGTLVTVSS
VL: DIQMTQSPSSLSASVGDRVTITCRASENQYGYLAWYQQKPGKVPKLLIYNTKNLVEGVPSRFSGSGSGTDFTLTISSLQPEDVATYYCQHHLGTPYTFGQGTKVEIK
notes: BGA13-1F heavy chain with a selected kappa light chain, IgG; also called BGA1311F-ph-M
In the case of B3, the “EC50 (read off the curve)” value [2] is reported as roughly 5 nM.

B4: BGA113K (antibody, human IgG1, V domains shown)
VH: QVQLVQSGAEVKKPGASVKVSCKASGYIFTSYYLHWVRQAPGQGLEWIGYINPQTGKTSYAQKFQGRVTMTRDTSTSTVYMELSSLRSEDTAVYYCAREYGNYNYPLDYWGQGTLVTVSS
VL: DIQMTQSPSSLSASVGDRVTITCRASENQYGYLAWYQQKPGKVPKLLIYNYKNLVEGVPSRFSGSGSGTDFTLTISSLQPEDVATYYCQHHLGTPYTFGQGTKVEIK
notes: BGA113 with Y57K in the heavy chain; generated in human IgG1 format; also called BGA113 variant Y57K; Y57K
With B4 the binding result [3] was “no binding (tested: 2 ug/ml (from paragraph 184; not on the sheet))”, the binding result [4] was “no binding (tested: 2 ug/ml (from paragraph 184; not on the sheet))” and the “EC50 (read off the curve)” value [5] was roughly 0.5 µg/mL.

B5: BGA13 (antibody, V domains shown)
VH: QVQLQQSGAELAKSGASVKMSCKASGYIFTSYWLHWVKQRPGQGLEWIGYINPNTGYTNYSQKFKDKATLTADKSSSTAYMQLSSLTSEDSAVYYCAREYGNYNYPLDYWGQGTSVTVSS
VL: DIQMTQSPASLSASVGETVTITCRASENIYGYLAWYQQKQGKSPQLLVFNAKNLVEGVPSRFSGSGSGTQFSLKINSLQPEDFGSYYCQHHYGTPYTFGGGTKLEIK
notes: murine monoclonal IgG purified from hybridoma supernatant; also called murine anti-CEA antibody BGA13
B5: no binding (BSA).
